# Measurements from the supplement of paper PMC10065799, “High-throughput profiling of sequence recognition by tyrosine kinases and SH2 domains using bacterial peptide display” (eLife, 2023).
# System: c-Abl (mouse)
# Assay: phosphorylation enrichment, bacterial display (enrichment ratio); higher = better substrate or ligand; peptides without Tyr show the background
# 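Also: 11-residue human phosphosite peptides and single-mutation variants displayed on the E. coli surface, counted by deep sequencing, each peptide's frequency after selection divided by its frequency in the unselected input library; frequency after pTyr selection over input frequency; kinase dosed for 20-30% of maximal phosphorylation in three min.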
row,Sequence,phosphorylation enrichment
1,SSEYHYVGGFY [CTSC_Y347],14.9
2,PHMQTYEVDHN [SDHB_Y61_L65H],0.864
3,IGEVVYQWAVM [GRIN2A_Y502_R504W],1.57
4,LTGIAYGLPHW [SLC22A14_Y291_S292G],0.705
5,NDTAGYFVIGG [SEL1L3_Y399_I401V],0.781
6,SLNAVYPRAGR [OAS3_Y376_S381R],0.488
7,KFVKMCDNHQL [MYO9A_Y203_Y203C_YF],0.519
8,FMGVEYSSCDT [EPHA3_Y937_T933M],0.827
9,GNLLIYTDFGK [HGD_Y166_E168D],1.53
10,DSDTDYGSGYP [RNASEH2A_Y206_L202S],1.01
11,ASLLPYFPAIM [IPO4_Y518],0.626
12,WNGDKYAATTT [TRIM39_Y439],0.513
13,QGQHWYSSSDK [CASP10_Y9],0.697
14,HVIKLFGACSQ [RET_Y791_Y791F],1.1
15,RRNTYYASIAK [ACADM_Y353],0.939
16,IENPQYFSDAC [NTRK1_Y496],1.01
17,KGERGYPGTLG [COL4A1_Y348_P352L],0.398

row,Sequence,phosphorylation enrichment
1,SSLEDYVRETN [GIMAP6_Y176_G171S],0.721
2,SIKDKYVTALC [KCNH2_Y611_Y616C],0.51
3,KPVDTYYDSTR [DYNC2H1_Y2230_M2227V],0.633
4,TNYRFYLRSLE [MTM1_Y71_L70F],0.835
5,RDLTHYLMKIL [ACTG1_Y188_D187H],0.692
6,ASTDYYKRGDF [PDHA1_Y243],0.559
7,QGQHWYSSSDT [CASP10_Y9_K14T],1.06
8,NNHGNYIVHLG [ETFDH_Y172_R175H],0.53
9,YADPYYDYEIE [ZC3H18_Y372],0.853
10,KLFFIYTSGTT [SLC27A4_Y245_YF],0.967
11,CTTIHDNYMCN [TP53_Y234_Y234D],0.551
12,HESEIYCKVCF [CSRP3_Y57_YF],1.17
13,NDFGNYSNQSS [HNRNPA1_Y318_N319S],0.458
14,RDMMDYMPQGV [CYP21A2_Y259_L261P],0.912
15,EMTRNYIIFIE [BCO2_Y294_G289E],0.572
16,ADLAKYICENQ [ALB_Y287],0.83

# Target: Fes (UniProt P07332)
# Sequence (P07332 whole entry, looked up): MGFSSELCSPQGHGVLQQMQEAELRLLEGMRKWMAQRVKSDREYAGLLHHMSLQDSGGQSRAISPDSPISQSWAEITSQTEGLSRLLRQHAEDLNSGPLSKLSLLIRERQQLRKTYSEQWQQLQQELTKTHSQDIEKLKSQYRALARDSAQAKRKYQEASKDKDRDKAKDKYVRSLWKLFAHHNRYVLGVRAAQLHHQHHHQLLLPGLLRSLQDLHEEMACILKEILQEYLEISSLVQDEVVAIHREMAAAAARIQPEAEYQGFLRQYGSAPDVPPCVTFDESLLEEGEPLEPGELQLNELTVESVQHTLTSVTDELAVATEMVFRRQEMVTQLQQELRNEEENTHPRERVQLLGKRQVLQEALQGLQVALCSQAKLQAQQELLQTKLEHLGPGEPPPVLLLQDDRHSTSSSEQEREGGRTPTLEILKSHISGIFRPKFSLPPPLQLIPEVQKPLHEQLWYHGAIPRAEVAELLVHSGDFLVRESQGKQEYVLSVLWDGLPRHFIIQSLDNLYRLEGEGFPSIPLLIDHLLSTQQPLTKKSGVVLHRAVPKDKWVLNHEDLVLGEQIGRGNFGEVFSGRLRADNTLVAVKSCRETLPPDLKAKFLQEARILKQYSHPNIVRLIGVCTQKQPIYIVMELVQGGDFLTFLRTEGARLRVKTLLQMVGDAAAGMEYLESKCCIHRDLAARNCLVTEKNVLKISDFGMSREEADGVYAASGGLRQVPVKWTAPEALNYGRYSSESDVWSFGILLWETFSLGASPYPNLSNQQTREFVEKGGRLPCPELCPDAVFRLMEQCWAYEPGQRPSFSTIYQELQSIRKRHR
# Assay: as above
row,Sequence,phosphorylation enrichment
1,SSEYHYVGGFY [CTSC_Y347],0.787
2,PHMQTYEVDHN [SDHB_Y61_L65H],1.01
3,IGEVVYQWAVM [GRIN2A_Y502_R504W],1.48
4,LTGIAYGLPHW [SLC22A14_Y291_S292G],1.25
5,NDTAGYFVIGG [SEL1L3_Y399_I401V],1.1
6,SLNAVYPRAGR [OAS3_Y376_S381R],0.692
7,KFVKMCDNHQL [MYO9A_Y203_Y203C_YF],0.603
8,FMGVEYSSCDT [EPHA3_Y937_T933M],1.31
9,GNLLIYTDFGK [HGD_Y166_E168D],1.27
10,DSDTDYGSGYP [RNASEH2A_Y206_L202S],1.55
11,ASLLPYFPAIM [IPO4_Y518],0.938
12,WNGDKYAATTT [TRIM39_Y439],0.731
13,QGQHWYSSSDK [CASP10_Y9],1.17
14,HVIKLFGACSQ [RET_Y791_Y791F],1.75
15,RRNTYYASIAK [ACADM_Y353],0.889
16,IENPQYFSDAC [NTRK1_Y496],1.24
17,KGERGYPGTLG [COL4A1_Y348_P352L],0.505

row,Sequence,phosphorylation enrichment
1,SSLEDYVRETN [GIMAP6_Y176_G171S],1.06
2,SIKDKYVTALC [KCNH2_Y611_Y616C],0.695
3,KPVDTYYDSTR [DYNC2H1_Y2230_M2227V],0.809
4,TNYRFYLRSLE [MTM1_Y71_L70F],1.18
5,RDLTHYLMKIL [ACTG1_Y188_D187H],1.12
6,ASTDYYKRGDF [PDHA1_Y243],0.71
7,QGQHWYSSSDT [CASP10_Y9_K14T],1.39
8,NNHGNYIVHLG [ETFDH_Y172_R175H],0.698
9,YADPYYDYEIE [ZC3H18_Y372],1.31
10,KLFFIYTSGTT [SLC27A4_Y245_YF],1.19
11,CTTIHDNYMCN [TP53_Y234_Y234D],1
12,HESEIYCKVCF [CSRP3_Y57_YF],1.11
13,NDFGNYSNQSS [HNRNPA1_Y318_N319S],0.619
14,RDMMDYMPQGV [CYP21A2_Y259_L261P],1.36
15,EMTRNYIIFIE [BCO2_Y294_G289E],1.08
16,ADLAKYICENQ [ALB_Y287],1.13

# Target: EPHB2 (UniProt P29323)
# Sequence (P29323 whole entry, looked up): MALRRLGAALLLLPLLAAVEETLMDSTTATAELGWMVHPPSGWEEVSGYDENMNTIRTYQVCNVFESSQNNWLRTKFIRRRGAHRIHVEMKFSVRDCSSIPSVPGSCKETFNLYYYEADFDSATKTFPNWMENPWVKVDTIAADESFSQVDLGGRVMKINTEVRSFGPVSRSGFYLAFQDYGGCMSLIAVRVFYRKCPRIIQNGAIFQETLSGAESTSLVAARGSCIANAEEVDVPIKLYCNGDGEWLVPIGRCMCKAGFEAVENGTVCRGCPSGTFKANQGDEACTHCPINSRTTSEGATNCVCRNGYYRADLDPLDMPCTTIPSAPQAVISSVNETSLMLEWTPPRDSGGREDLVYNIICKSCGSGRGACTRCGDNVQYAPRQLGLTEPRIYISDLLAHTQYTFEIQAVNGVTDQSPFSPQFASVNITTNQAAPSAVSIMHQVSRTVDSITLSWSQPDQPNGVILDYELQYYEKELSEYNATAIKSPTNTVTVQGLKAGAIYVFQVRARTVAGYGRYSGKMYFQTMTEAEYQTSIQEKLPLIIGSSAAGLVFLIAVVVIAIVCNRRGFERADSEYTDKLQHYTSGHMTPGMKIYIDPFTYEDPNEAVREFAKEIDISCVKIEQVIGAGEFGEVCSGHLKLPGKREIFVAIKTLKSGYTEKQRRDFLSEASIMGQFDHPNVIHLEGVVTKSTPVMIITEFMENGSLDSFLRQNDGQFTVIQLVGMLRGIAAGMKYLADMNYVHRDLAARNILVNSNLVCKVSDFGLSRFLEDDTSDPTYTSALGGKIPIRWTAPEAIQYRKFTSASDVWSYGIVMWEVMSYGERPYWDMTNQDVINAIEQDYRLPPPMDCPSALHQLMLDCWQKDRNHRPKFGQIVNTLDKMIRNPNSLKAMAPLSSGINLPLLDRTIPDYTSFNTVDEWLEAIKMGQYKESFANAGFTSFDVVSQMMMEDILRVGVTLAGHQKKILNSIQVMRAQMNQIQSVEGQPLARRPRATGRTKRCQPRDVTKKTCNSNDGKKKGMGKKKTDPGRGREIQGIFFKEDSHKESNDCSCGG
# Assay: as above
row,Sequence,phosphorylation enrichment
1,SSEYHYVGGFY [CTSC_Y347],12.9
2,PHMQTYEVDHN [SDHB_Y61_L65H],3.83
3,IGEVVYQWAVM [GRIN2A_Y502_R504W],0.598
4,LTGIAYGLPHW [SLC22A14_Y291_S292G],0.558
5,NDTAGYFVIGG [SEL1L3_Y399_I401V],0.642
6,SLNAVYPRAGR [OAS3_Y376_S381R],0.414
7,KFVKMCDNHQL [MYO9A_Y203_Y203C_YF],0.384
8,FMGVEYSSCDT [EPHA3_Y937_T933M],0.756
9,GNLLIYTDFGK [HGD_Y166_E168D],1.27
10,DSDTDYGSGYP [RNASEH2A_Y206_L202S],0.573
11,ASLLPYFPAIM [IPO4_Y518],0.576
12,WNGDKYAATTT [TRIM39_Y439],0.592
13,QGQHWYSSSDK [CASP10_Y9],0.596
14,HVIKLFGACSQ [RET_Y791_Y791F],0.995
15,RRNTYYASIAK [ACADM_Y353],0.541
16,IENPQYFSDAC [NTRK1_Y496],0.616
17,KGERGYPGTLG [COL4A1_Y348_P352L],0.439

row,Sequence,phosphorylation enrichment
1,SSLEDYVRETN [GIMAP6_Y176_G171S],0.527
2,SIKDKYVTALC [KCNH2_Y611_Y616C],0.371
3,KPVDTYYDSTR [DYNC2H1_Y2230_M2227V],0.496
4,TNYRFYLRSLE [MTM1_Y71_L70F],0.532
5,RDLTHYLMKIL [ACTG1_Y188_D187H],0.804
6,ASTDYYKRGDF [PDHA1_Y243],0.409
7,QGQHWYSSSDT [CASP10_Y9_K14T],0.929
8,NNHGNYIVHLG [ETFDH_Y172_R175H],2.19
9,YADPYYDYEIE [ZC3H18_Y372],1.94
10,KLFFIYTSGTT [SLC27A4_Y245_YF],0.646
11,CTTIHDNYMCN [TP53_Y234_Y234D],0.556
12,HESEIYCKVCF [CSRP3_Y57_YF],1.42
13,NDFGNYSNQSS [HNRNPA1_Y318_N319S],1.92
14,RDMMDYMPQGV [CYP21A2_Y259_L261P],1.28
15,EMTRNYIIFIE [BCO2_Y294_G289E],0.569
16,ADLAKYICENQ [ALB_Y287],0.63

# Target: FGFR3 (UniProt P22607)
# Sequence (P22607 whole entry, looked up): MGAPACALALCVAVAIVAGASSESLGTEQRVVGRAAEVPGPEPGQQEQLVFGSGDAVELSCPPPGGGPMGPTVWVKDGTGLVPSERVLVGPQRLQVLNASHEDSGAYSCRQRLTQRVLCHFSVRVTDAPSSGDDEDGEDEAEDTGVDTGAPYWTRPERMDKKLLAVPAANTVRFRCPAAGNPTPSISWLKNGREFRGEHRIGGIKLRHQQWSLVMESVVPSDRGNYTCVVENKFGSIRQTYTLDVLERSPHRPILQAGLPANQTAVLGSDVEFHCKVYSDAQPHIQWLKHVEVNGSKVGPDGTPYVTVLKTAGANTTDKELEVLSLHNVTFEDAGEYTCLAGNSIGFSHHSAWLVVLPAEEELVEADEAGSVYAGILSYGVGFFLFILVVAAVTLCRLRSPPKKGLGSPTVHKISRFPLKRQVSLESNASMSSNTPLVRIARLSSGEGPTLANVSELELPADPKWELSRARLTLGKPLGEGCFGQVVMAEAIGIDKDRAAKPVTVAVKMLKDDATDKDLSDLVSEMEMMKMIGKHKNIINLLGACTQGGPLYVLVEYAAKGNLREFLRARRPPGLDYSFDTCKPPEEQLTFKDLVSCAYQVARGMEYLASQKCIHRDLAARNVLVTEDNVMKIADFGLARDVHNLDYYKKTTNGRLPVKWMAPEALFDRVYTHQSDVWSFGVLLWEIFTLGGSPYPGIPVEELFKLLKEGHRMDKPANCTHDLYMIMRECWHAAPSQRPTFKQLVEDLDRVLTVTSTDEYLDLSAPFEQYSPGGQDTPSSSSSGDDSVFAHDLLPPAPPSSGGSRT
# Assay: as above
row,Sequence,phosphorylation enrichment
1,SSEYHYVGGFY [CTSC_Y347],11.3
2,PHMQTYEVDHN [SDHB_Y61_L65H],0.783
3,IGEVVYQWAVM [GRIN2A_Y502_R504W],1.15
4,LTGIAYGLPHW [SLC22A14_Y291_S292G],0.618
5,NDTAGYFVIGG [SEL1L3_Y399_I401V],1.64
6,SLNAVYPRAGR [OAS3_Y376_S381R],0.445
7,KFVKMCDNHQL [MYO9A_Y203_Y203C_YF],0.45
8,FMGVEYSSCDT [EPHA3_Y937_T933M],0.838
9,GNLLIYTDFGK [HGD_Y166_E168D],0.702
10,DSDTDYGSGYP [RNASEH2A_Y206_L202S],0.899
11,ASLLPYFPAIM [IPO4_Y518],0.694
12,WNGDKYAATTT [TRIM39_Y439],0.679
13,QGQHWYSSSDK [CASP10_Y9],0.6
14,HVIKLFGACSQ [RET_Y791_Y791F],1.26
15,RRNTYYASIAK [ACADM_Y353],0.76
16,IENPQYFSDAC [NTRK1_Y496],0.962
17,KGERGYPGTLG [COL4A1_Y348_P352L],0.484

row,Sequence,phosphorylation enrichment
1,SSLEDYVRETN [GIMAP6_Y176_G171S],0.641
2,SIKDKYVTALC [KCNH2_Y611_Y616C],0.81
3,KPVDTYYDSTR [DYNC2H1_Y2230_M2227V],0.668
4,TNYRFYLRSLE [MTM1_Y71_L70F],0.855
5,RDLTHYLMKIL [ACTG1_Y188_D187H],0.85
6,ASTDYYKRGDF [PDHA1_Y243],0.501
7,QGQHWYSSSDT [CASP10_Y9_K14T],0.901
8,NNHGNYIVHLG [ETFDH_Y172_R175H],0.537
9,YADPYYDYEIE [ZC3H18_Y372],7.39
10,KLFFIYTSGTT [SLC27A4_Y245_YF],0.813
11,CTTIHDNYMCN [TP53_Y234_Y234D],0.539
12,HESEIYCKVCF [CSRP3_Y57_YF],0.89
13,NDFGNYSNQSS [HNRNPA1_Y318_N319S],0.49
14,RDMMDYMPQGV [CYP21A2_Y259_L261P],0.823
15,EMTRNYIIFIE [BCO2_Y294_G289E],0.683
16,ADLAKYICENQ [ALB_Y287],0.788
